This data set has as its system TAL-PrA (GAL1 promoter TAL). The note with it: ChIP-qPCR. A general note: Quantitative PCR measures a nucleic acid by following its amplification.

Where two headings read alike, the source gives them in different places.

For the substance “AAATTAATCAGCGGTGAC (double strand) [REV7 similar site (ChrIX)]”, the binding signal came to 0.77 fold vs ACT1.

Under “not enriched in glucose”, “GAL1 promoter TAL target (ChrII 278829-278846)” returned a binding signal of 6.14 fold vs ACT1.

“GGGGTAATTAAAATTTCT (double strand) [IQG1 similar site (ChrXVI)]” yielded a binding signal of 0.76 fold vs ACT1.

“GGGGTAATTAATCATTTT (double strand) [SCC2 similar site (ChrIV)]” had a binding signal of 0.65 fold vs ACT1.

“GGGGTAATTAATGTAAAT (double strand) [IDP3 similar site (ChrXIV)]”: the binding signal stood at 0.94 fold vs ACT1.

In turn, “TTATACATTAATCAGCGA (double strand) [ENB1 similar site (ChrXV)]” gave a binding signal (GAL1 at least 4.6-fold better) of 1.34 fold vs ACT1.

The values above are taken from US20150338398.
